{"source": "paper PMC8429565", "about": "“Conformational rearrangements enable iterative backbone N-methylation in RiPP biosynthesis” (Nature Communications, 2021)", "binders": {"B1": {"name": "his6-SonM, wild type, individually expressed (enzyme, Shewanella oneidensis MR-1, UniProt Q8EGW3 1-263, looked up)", "chain": "MGSLVCVGTGLQLAGQISVLSRSYIEHADIVFSLLPDGFSQRWLTKLNPNVINLQQFYAQNGEVKNRRDTYEQMVNAILDAVRAGKKTVCALYGHPGVFACVSHMAITRAKAEGFSAKMEPGISAEACLWADLGIDPGNSGHQSFEASQFMFFNHVPDPTTHLLLWQIAIAGEHTLTQFHTSSDRLQILVEQLNQWYPLDHEVVIYEAANLPIQAPRIERLPLANLPQAHLMPISTLLIPPAKKLEYNYAILAKLGIGPEDLG", "notes": "SonM (SO1478), α-N-methyltransferase of Shewanella oneidensis MR-1, 263 AA; gene sonM amplified from genomic DNA; also called wt; source: E. coli BL21(DE3), pET28b, purified (Ni-NTA or HisTrap, Superdex 200 SEC); not shown: His6, N-terminal, kept"}, "B2": {"name": "unmethylated SonA precursor peptide (SonA-0Me), his6-tagged (natural protein, Shewanella oneidensis MR-1, UniProt Q8EGW2 1-71, looked up)", "chain": "MSGLSDFFTQLGQDAQLMEDYKQNPEAVMRAHGLTDEQINAVMTGDMEKLKTLSGDSSYQSYLVISHGNGD"}, "B3": {"name": "doubly α-N-methylated SonA precursor peptide (SonA-2Me), his6-tagged (natural protein, Shewanella oneidensis MR-1, UniProt Q8EGW2 1-71, looked up)", "chain": "B2 chain", "modifications": "N-methyl-L-leucine (MLE) at 63; N-methyl-L-isoleucine (IML) at 65 (backbone α-N-methylations)", "notes": "SonA (SO1479), borosin precursor peptide of Shewanella oneidensis MR-1; BBD leader 1-53, linker 54-61, core peptide 62-71; also called doubly methylated SonA; SO1479; source: E. coli BL21(DE3), co-expressed from pET28b with SonM, purified (Ni-NTA or HisTrap, Superdex 200 SEC)"}, "B4": {"name": "SonA borosin binding domain only construct (SonA-BBD; 1-55) (domain or fragment, Shewanella oneidensis MR-1, UniProt Q8EGW2 1-55, looked up)", "chain": "MSGLSDFFTQLGQDAQLMEDYKQNPEAVMRAHGLTDEQINAVMTGDMEKLKTLSG", "notes": "SonA (SO1479) of Shewanella oneidensis MR-1, helical bundle composed of the first 55 amino acids (1-55); The his6 tag is stated for the individual construct; for the co-expression construct it is surmised from the template plasmid pMF1181; also called BBD-SonA; his6-SonA-BBD"}}, "key": {"[1]": {"target": "the molecule itself", "test": "SEC; oligomeric state of individually expressed and purified SonM and SonA (Supplementary Fig. 6); Superdex 200 in 50 mM HEPES pH 8, 300 mM NaCl, 10% glycerol is the sizing step of the purification"}, "[2]": {"target": "T1, his6-SonM-R67K, individually expressed (Shewanella oneidensis MR-1, UniProt Q8EGW3 1-263, SonM-R67K)", "T1 sequence (looked up)": "B1 chain with R67K", "test": "cell-based or functional assay"}, "[3]": {"target": "T2, his6-SonM-Y71F, individually expressed (Shewanella oneidensis MR-1, UniProt Q8EGW3 1-263, SonM-Y71F)", "T2 sequence (looked up)": "B1 chain with Y71F", "test": "cell-based or functional assay"}, "[4]": {"target": "B1", "test": "cell-based or functional assay"}, "[5]": {"target": "T3, his6-SonM-Y58F, individually expressed (Shewanella oneidensis MR-1, UniProt Q8EGW3 1-263, SonM-Y58F)", "T3 sequence (looked up)": "B1 chain with Y58F", "test": "cell-based or functional assay"}, "[6]": {"target": "T4, his6-SonM-Y93F, individually expressed (Shewanella oneidensis MR-1, UniProt Q8EGW3 1-263, SonM-Y93F)", "T4 sequence (looked up)": "B1 chain with Y93F", "test": "cell-based or functional assay"}, "[7]": {"target": "B1", "test": "enzyme inhibition kinetics (continuous coupled methyltransferase assay, A340); apparent Ki; 5 μM wt SonM, saturating SAM (1 mM), varying concentrations of SonA and of the inhibitor (SonA-BBD or SonA-2Me); non-linear regression in GraphPad Prism 8", "settings": "both partners purified"}}, "note": "Where a chain is given by its changes, count along the chain named.", "data": [{"binder": "B1", "values": [{"measurement": "stoichiometry N", "setting": "[1]", "result": 2}]}, {"binder": "B2", "values": [{"measurement": "apparent KM for SonA, coupled methyltransferase kinetics assay, saturating SAM", "setting": "[2]", "result": 18, "unit": "µM"}, {"measurement": "apparent KM for SonA, coupled methyltransferase kinetics assay, saturating SAM", "setting": "[3]", "result": 9.6, "unit": "µM"}, {"measurement": "apparent KM for SonA, coupled methyltransferase kinetics assay, saturating SAM", "setting": "[4]", "result": 8.2, "unit": "µM"}, {"measurement": "apparent KM for SonA, coupled methyltransferase kinetics assay, saturating SAM", "setting": "[5]", "result": 7.6, "unit": "µM"}, {"measurement": "apparent KM for SonA, coupled methyltransferase kinetics assay, saturating SAM", "setting": "[6]", "result": 6.2, "unit": "µM"}]}, {"binder": "B3", "values": [{"measurement": "Ki", "setting": "[7]", "result": 160, "unit": "µM"}]}, {"binder": "B4", "values": [{"measurement": "Ki", "setting": "[7]", "result": 3.9, "unit": "µM"}]}]}
